Source: patent US12064464B2, “Plantaricin NC8 alpha beta markedly enhances the effects of antibiotics” (priority 2018, dated 2024)
“Also recorded” adds a separate entry of the source.

How the values were obtained:
[1] = tested on: S. epidermidis ATCC 12228; experiment: Broth microdilution MIC/MBC; assay type: cell-based, Staphylococcus epidermidis
Description: (§1) Staphylococcus aureus CCUG 35601 (MRSA, Culture Collection, University of Gothenburg) and Staphylococcus aureus ATCC 29213 (MSSA, ATCC, Manassas, VA). Staphylococcus epidermidis ATCC 12228 (ATCC, Manassas, VA), RP62A, N15 and 10 clinical isolates of Staphylococcus epidermidis that have previously been characterized. Isolated Escherichia coli, Enterococcus faecium (including VRE), Pseudomonas aeruginosa, Klebsiella pneumoniae, Enterobacter spp and Acinetobacter baumannii were obtained from Orebro University hospital. Isolated Streptococcus mutans, Streptococcus constellatus and Streptococcus anginosus were obtained from Malmo University. The bacteria were grown on Luria-Bertani (LB) agar plates, supplemented with 5% defibrinated horse blood, and incubated at 37° C. overnight. Single colonies were inoculated into 5 ml of LB broth and incubated on a shaker (300 rpm) at 37° C. overnight. The bacterial concentration was determined by viable count and adjusted to correlate with approximately 10^9 CFU/ml.
(§2) The broth microdilution method was used to determine minimal inhibitory concentration (MIC) and minimal bactericidal concentration (MBC). Two-fold serial dilutions of the peptides were used and the final concentrations ranged from 0.097-50 μM. […] The effect of bacteriocin-antibiotic combinations was accomplished by using the same concentration series of antibiotics with a constant concentration of PLNC8 αβ (3.1 μM) in all the wells. […] All experiments were repeated at least three times.

S. epidermidis 117 = experiment: Broth microdilution MIC/MBC; assay type: cell-based, Staphylococcus epidermidis; settings: Table 1, peptide alone, 20 h; no unit in table, μM
Description: as §1, §2

[2] = tested on: S. epidermidis 126 (hGISE strain); experiment: Broth microdilution MIC/MBC; assay type: cell-based, Staphylococcus epidermidis; settings: Table 3, peptide alone
Description: as §1, §2

S. epidermidis N15 = experiment: Broth microdilution MIC/MBC; assay type: cell-based, Staphylococcus epidermidis; settings: Table 1, peptide alone, 20 h; no unit in table, μM
Description: as §1, §2

S. epidermidis 154 = experiment: Broth microdilution MIC/MBC; assay type: cell-based, Staphylococcus epidermidis; settings: Table 3, peptide alone
Description: as §1, §2

S. epidermidis RP62A = experiment: Broth microdilution MIC/MBC; assay type: cell-based, Staphylococcus epidermidis; settings: Table 1, peptide alone, 20 h; no unit in table, μM
Description: as §1, §2

[3] = tested on: S. epidermidis 157 (hGISE strain); experiment: Broth microdilution MIC/MBC; assay type: cell-based, Staphylococcus epidermidis; settings: Table 3, peptide alone
Description: as §1, §2

[4] = tested on: S. epidermidis RP62A biofilms; experiment: Bacterial biofilm disruption; assay type: cell-based, Staphylococcus epidermidis; settings: 1 h
Experimental: S. epidermidis RP62A was inoculated into 5 ml of LB broth and incubated on a shaker at 37° C. overnight. The bacterial culture was diluted 1:100 into fresh media and 100 μl of bacterial suspension per well was added in a 96-well microtiter plate and incubated statically at 37° C. for 20 h. The wells were washed three times by submerging the plate into a container with distilled water to remove unattached cells. Fresh LB media was added to each well (100 μl) followed by addition of the peptides in different concentrations. The plate was incubated statically for 1 h. Detached material in the wells were transferred to a new microtiter plate for absorbance measurements at 620 nm. The remaining attached biofilms were stained with 0.1% crystal violet for 15 min before the plate was washed four times in distilled water as mentioned above and allowed to dry at room temperature for 2 h. The crystal violet was solubilized in 30% acetic acid for 15 min and the absorbance quantified at 550 nm. Each experiment, with three replicates, was repeated three times.

[5] = references 1, 2; cited from earlier work
[6] = Fluorescence leakage assay (CF release from liposomes); settings: after 2 min; both the L-form and D-form
Experimental: Liposomes were prepared by dry film formation, hydration and finally extrusion through a polycarbonate membrane to form monodisperse large unilamellar vesicles. […] A dry lipid film was formed by evaporation of the chloroform by nitrogen flow and overnight lyophilization. The film was hydrated with either 10 mM phosphate buffer (PB) pH 7 or 10 mM phosphate buffer saline (PBS) pH 7, and the solution was vortexed for 1 min and put on a shaker for 1 h before extruded 21 times through a 100 nm pore-sized polycarbonate membrane. For fluorescence leakage assay the lipid film was hydrated with buffer (PBS) containing self-quenching concentration (50 mM) of 5(6)-carboxyfluorescein (CF) (Sigma Aldrich) and liposomes were prepared as described above. Removal of unencapsulated CF was done by gel filtration using a PD-25 column (GE Healthcare, Uppsala, Sweden) and liposomes with encapsulated CF were eluted with PBS. Leakage of the liposome encapsulated fluorophore CF due to additions of the bacteriocins was recorded using a fluorescence plate reader (Infinite 200, Tecan, Austria) where λex=485 nm and λem=520 nm. CF was encapsulated at self-quenching concentration, and CF release results in an increased fluorescence signal. […] In order to estimate the maximum release from each sample a final addition of 0.5% Triton X-100 was made at the end of all measurements and the total amount of CF (100% release) was estimated after 15 min incubation. The CF release is presented as percentage release for each time interval (measurements taken every minute). The percentage CF release is calculated as 100×(F−F0)/(FT−F0) where F0 is the initial fluorescence intensity of CF before peptide addition, F is the fluorescence intensity of CF at time point t and FT is the maximum fluorescence after the addition of Triton X-100.

[7] = Table 1, peptide alone, 20 h, no unit in table, μM

B1: PLNC8 αβ: two-peptide class IIb bacteriocin of L. plantarum NC8: PLNC8 α (SEQ ID NO 1) with PLNC8 β (SEQ ID NO 2) (peptide)
alpha: DLTTKLWSSWGYYLGKKARWNLKHPYVQF
beta: SVPTSVYTLGIKILWSAYKHRKTIEKSFNKGFYH
modifications: Lactobacillus plantarum NC8
In the case of B1, the “molar ratio PLNC8 α to PLNC8 β for inhibiting and killing” value ([1]; 20 h) is reported as “molar ratio of 1:1 is most efficient at inhibiting and killing S. epidermidis; also recorded: ratios between 1:1 and 1:7 were also found to be effective”, the “molar ratio PLNC8 α to PLNC8 β for inhibiting and killing” value ([1]; 20 h, listed as PLNC8αβ) is reported as “molar ratio of 1:1 is most efficient at inhibiting and killing S. epidermidis” and the MBC [1, 7] is reported as 12.5 µM. The MIC [1, 7] was 6.25 µM, the MBC ([1]; Table 2, peptide alone) was 12.5 µM and the MIC ([1]; Table 2, peptide alone) was 6.25 µM. For the same molecule, the MBC (S. epidermidis 117) was 12.5 µM, the MIC (S. epidermidis 117) was 12.5 µM and the MBC [2] was 50 µM. For the same molecule, the MIC [2] was 12.5 µM, the MBC (S. epidermidis N15) was 6.25 µM and the MIC (S. epidermidis N15) was 6.25 µM. It also gave an MBC (S. epidermidis 154) of 12.5 µM, an MIC (S. epidermidis 154) of 6.25 µM and an MBC (S. epidermidis RP62A) of 6.25 µM. The MIC (S. epidermidis RP62A) was 6.25 µM, the MBC [3] was >50 µM and the MIC [3] was 12.5 µM. For the same molecule, the disruption of biofilms [4] was “efficiently disrupted the biofilms and killed the bacteria”, the cell proliferation [5] was “stimulates cell proliferation” and the lysis of liposomes [6] was “complete lysis of liposomes after 2 min”.
